This assay addresses Bovine submaxillary mucin (BSM) (bovine). The experiment in a line: binding of the 125I-labelled protein to BSM.

In the case of “CC49, murine monoclonal antibody specific to TAG-72 (ATCC No. HB9459)”, the Percent Activity (as determined by BSM binding) stood at 96 percent.
The value for ChCC49 Fab was 64 percent.

Values taken from US6071515.
